Tests used:
SBP-tagged LeishIF4E-4 = experiment: pull-down
SBP-tagged LeishIF4E-1 = experiment: pull-down

Substance	percent of the total protein in the elution fraction (SBP-tagged LeishIF4E-4)	percent of the total protein in the elution fraction (SBP-tagged LeishIF4E-1)
LeishIF4G-3 (natural protein)	9%	–
LeishIF4A-1 (natural protein)	3.4%	3%
Leishmania 4E-Interacting Protein (Leish4E-IP) (natural protein)	–	14%

From article PMC3201875
